From paper doi:10.1101/2025.10.18.683246 (bioRxiv, 2025) come the findings set out here.

Data set [1] concerns the molecule itself. The data set is described as follows: SDS-PAGE with or without DTT and Western blot.
Data set [2] addresses T1, N-terminal cleavage product of CLCA1 (NTP) (human, UniProt A8K7I4 22-694, N-glycans at Asn503 and Asn585).
T1 sequence (looked up): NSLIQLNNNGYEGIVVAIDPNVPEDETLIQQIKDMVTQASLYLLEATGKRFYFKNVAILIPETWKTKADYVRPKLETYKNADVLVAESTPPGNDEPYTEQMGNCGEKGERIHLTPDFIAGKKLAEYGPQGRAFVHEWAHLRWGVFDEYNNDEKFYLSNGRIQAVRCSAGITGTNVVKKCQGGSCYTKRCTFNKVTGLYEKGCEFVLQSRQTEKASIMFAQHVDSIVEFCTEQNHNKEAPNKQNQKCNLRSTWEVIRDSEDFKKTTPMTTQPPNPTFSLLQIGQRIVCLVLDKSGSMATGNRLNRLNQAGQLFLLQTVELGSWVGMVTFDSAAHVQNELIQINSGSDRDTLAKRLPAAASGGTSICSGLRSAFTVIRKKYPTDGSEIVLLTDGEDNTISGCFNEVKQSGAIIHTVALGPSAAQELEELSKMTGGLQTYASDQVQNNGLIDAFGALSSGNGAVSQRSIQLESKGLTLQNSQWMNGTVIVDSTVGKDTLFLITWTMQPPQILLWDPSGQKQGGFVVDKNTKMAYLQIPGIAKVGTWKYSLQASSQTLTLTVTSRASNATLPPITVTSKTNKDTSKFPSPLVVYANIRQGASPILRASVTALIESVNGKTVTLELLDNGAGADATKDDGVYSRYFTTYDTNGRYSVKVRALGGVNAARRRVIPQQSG
Description: cryo-EM structure.

B1: C-terminal cleavage product of CLCA1 (CTP) (domain or fragment, human, UniProt A8K7I4 695-914, looked up)
chain: ALYIPGWIENDEIQWNPPRPEINKDDVQHKQVCFSRTSSGGSFVASDVPNAPIPDLFPPGQITDLKAEIHGGSLINLTWTAPGDDYDHGTAHKYIIRISTSILDLRDKFNESLQVNTTALIPKEANSEEVFLFKPENITFENGTDLFIAIQAVDKVDLKSEISNIARVSLFIPPQTPPETPSPDETSAPCPNIHINSTIPGIHILKIMWKWIGELQLSIA
modifications: N-glycans at Asn770, Asn804, Asn810, Asn831 and Asn836
B1: the binding result in data set [1] and in data set [2] was “binds” in each case.
